{
  "source": "patent US20250000936A1",
  "about": "“TREATMENT OF GEOGRAPHIC ATROPHY” (Apellis Pharmaceuticals, Inc., priority 2021, published 2025)",
  "tested_on": "patients with geographic atrophy (GA) secondary to age-related macular degeneration (AMD)",
  "assay": "OAKS Phase 3 study: safety",
  "conditions": "for Patients with new onset fellow eye eAMD: through 18 months",
  "key": {"[1]": {"conditions": "PEOM (every other month), 12 months"}, "[2]": {"conditions": "PEOM (every other month), 18 months"}, "[3]": {"conditions": "PEOM (every other month), N=212"}},
  "note": "“And” between values parts separate entries of the source, which are not always exact repeats. Equal entries are not always repeated.",
  "protocol": "All randomized subjects returned every month to the clinical site for assessments and additional pegcetacoplan or sham injections according to their randomization scheme until Month 12. From Month 12 onwards, subjects return to the clinical site based on their randomized treatment schedule (monthly or EOM) and follow the treatment regimen and assessments outlined in the Visit Schedule until Month 24. Safety was assessed throughout the study by a number of evaluations including: monitoring of AEs, preinjection and postinjection monitoring, blood and urine samples collected, physical examination, vital signs, and follow-up phone calls. Blood samples were also be collected for anti-therapeutic antibodies, genotyping, and clinical repository (if the subject consented to this portion).\nThe Safety set consisted of all subjects randomized who received at least one injection of pegcetacoplan or sham. Subjects were analyzed according to the actual treatment received. […] This population was used for all safety analyses.",
  "data": [
    {"substance": "Poly(oxy-1,2-ethanediyl), α-hydro-ω-hydroxy-, 15,15′-diester with N-acetyl-L-isoleucyl-L-cysteinyl-L-valyl-1-methyl-L-tryptophyl-L-glutaminyl-L-α-aspartyl-L-tryptophylglycyl-L-alanyl-L-histidyl-L-arginyl-L-cysteinyl-L-threonyl-2-[2-(2-aminoethoxy) ethoxy]acetyl-N^6-carboxy-L-lysinamide cyclic (2->12)-(disulfide) [pegcetacoplan]", "values": [
      {"measurement": "All TEAEs, Total events, M", "setting": "[1]", "value": 721},
      {"measurement": "All TEAEs, patients", "setting": "[1]", "value": "160 (75.5%) n (%)"},
      {"measurement": "Cases of MNV (FA) detected by reading center but not reported by Investigator as AE", "setting": "[1]", "value": 3},
      {"measurement": "Non-ocular TEAEs, Patients", "setting": "[1]", "value": "127 (59 9%) n (%)"},
      {"measurement": "Non-ocular TEAEs, events M", "setting": "[1]", "value": 412},
      {"measurement": "Ocular TEAE in study eye Conjunctival haemorrhage, events M", "setting": "[1]", "value": 16},
      {"measurement": "Ocular TEAE in study eye Conjunctival haemorrhage, patients", "setting": "[1]", "value": "13 (6.1%) n (%)"},
      {"measurement": "Ocular TEAE in study eye Eye Pain, events M", "setting": "[1]", "value": 14},
      {"measurement": "Ocular TEAE in study eye Eye Pain, patients", "setting": "[1]", "value": "12 (5.7%) n (%)"},
      {"measurement": "Ocular TEAE in study eye Vitreous floaters, events M", "setting": "[1]", "value": 20},
      {"measurement": "Ocular TEAE in study eye Vitreous floaters, patients", "setting": "[1]", "value": "15 (7.1%) n (%)"},
      {"measurement": "Ocular TEAEs in study eye, Patients", "setting": "[1]", "value": "97 (45.8%) n (%) and 97 (45.8) n (%)"},
      {"measurement": "Ocular TEAEs in study eye, events M", "setting": "[1]", "value": 208},
      {"measurement": "Serious ocular TEAE Endophthalmitis, events M", "setting": "[1]", "value": 3},
      {"measurement": "Serious ocular TEAE Endophthalmitis, patients", "setting": "[1]", "value": "3 (1.4%) n (%)"},
      {"measurement": "Serious ocular TEAE Macular hole, patients", "setting": "[1]", "value": "0 n (%)"},
      {"measurement": "Serious ocular TEAE Optic ischemic neuropathy, patients", "setting": "[1]", "value": "0 n (%)"},
      {"measurement": "Serious ocular TEAE Papilledema, patients", "setting": "[1]", "value": "0 n (%)"},
      {"measurement": "Serious ocular TEAE Retinal detachment, events M", "setting": "[1]", "value": 1},
      {"measurement": "Serious ocular TEAE Retinal detachment, patients", "setting": "[1]", "value": "1 (0.5%) n (%)"},
      {"measurement": "Serious ocular TEAEs in the study eye, events M", "setting": "[1]", "value": 4},
      {"measurement": "Serious ocular TEAEs in the study eye, patients", "setting": "[1]", "value": "4 (1.9%) n (%)"},
      {"measurement": "Sum of investigator-determined eAMD and reading center cases not reported by investigators", "setting": "[1]", "value": "(6.1%)"},
      {"measurement": "Sum of investigator-determined eAMD and reading center cases not reported by investigators", "setting": "PEOM (every other month), 12 months, count", "value": 13},
      {"measurement": "All TEAEs, Total events, M", "setting": "[2]", "value": 965},
      {"measurement": "All TEAEs, patients", "setting": "[2]", "value": "177 (83.5%) n (%)"},
      {"measurement": "Non-ocular TEAEs, M", "setting": "[2]", "value": 567},
      {"measurement": "Non-ocular TEAEs, Patients", "setting": "[2]", "value": "158 (74.5%) n (%)"},
      {"measurement": "Ocular TEAEs in study eye, M", "setting": "[2]", "value": 270},
      {"measurement": "Ocular TEAEs in study eye, Patients", "setting": "[2]", "value": "114 (53.8%) n (%)"},
      {"measurement": "Discontinued study prior to Month 12, reason Adverse Event", "setting": "[3]", "value": "5 (2.4%) n (%)"},
      {"measurement": "Discontinued study prior to Month 12, reason Death", "setting": "[3]", "value": "3 (1.4%) n (%)"},
      {"measurement": "Discontinued study prior to Month 18, reason Adverse event", "setting": "[3]", "value": "4 (1.9%) n (%)"},
      {"measurement": "Discontinued study prior to Month 18, reason Death", "setting": "[3]", "value": "7 (3.3%) n (%)"},
      {"measurement": "Patients with new onset fellow eye eAMD", "setting": "PEOM (every other month), 173 patients without baseline fellow eye CNV", "value": "5 (2.9%) n (%)"},
      {"measurement": "All TEAEs, Total events, M", "setting": "PM (monthly), 12 months", "value": 751},
      {"measurement": "All TEAEs, patients", "setting": "PM (monthly), 12 months", "value": "170 (79.8%) n (%)"},
      {"measurement": "Cases of MNV (FA) detected by reading center but not reported by Investigator as AE", "setting": "PM (monthly), 12 months", "value": 2},
      {"measurement": "Non-ocular TEAEs, Patients", "setting": "PM (monthly), 12 months", "value": "136 (63.8%) n (%)"},
      {"measurement": "Non-ocular TEAEs, events M", "setting": "PM (monthly), 12 months", "value": 390},
      {"measurement": "Ocular TEAE in study eye Conjunctival haemorrhage, events M", "setting": "PM (monthly), 12 months", "value": 30},
      {"measurement": "Ocular TEAE in study eye Conjunctival haemorrhage, patients", "setting": "PM (monthly), 12 months", "value": "18 (8.5%) n (%)"},
      {"measurement": "Ocular TEAE in study eye Eye Pain, events M", "setting": "PM (monthly), 12 months", "value": 17},
      {"measurement": "Ocular TEAE in study eye Eye Pain, patients", "setting": "PM (monthly), 12 months", "value": "15 (7.0%) n (%)"},
      {"measurement": "Ocular TEAE in study eye Vitreous floaters, events M", "setting": "PM (monthly), 12 months", "value": 10},
      {"measurement": "Ocular TEAE in study eye Vitreous floaters, patients", "setting": "PM (monthly), 12 months", "value": "9 (4.2%) n (%)"},
      {"measurement": "Ocular TEAEs in study eye, Patients", "setting": "PM (monthly), 12 months", "value": "108 (50.7%) n (%)"},
      {"measurement": "Ocular TEAEs in study eye, events M", "setting": "PM (monthly), 12 months", "value": 256},
      {"measurement": "Serious ocular TEAE Dry AMD, patients", "setting": "PM (monthly), 12 months", "value": "0 n (%)"},
      {"measurement": "Serious ocular TEAE Endophthalmitis, events M", "setting": "PM (monthly), 12 months", "value": 3},
      {"measurement": "Serious ocular TEAE Endophthalmitis, patients", "setting": "PM (monthly), 12 months", "value": "1 (0.5%) n (%)"},
      {"measurement": "Serious ocular TEAE Macular hole, patients", "setting": "PM (monthly), 12 months", "value": "0 n (%)"},
      {"measurement": "Serious ocular TEAE Optic ischemic neuropathy, events M", "setting": "PM (monthly), 12 months", "value": 3},
      {"measurement": "Serious ocular TEAE Optic ischemic neuropathy, patients", "setting": "PM (monthly), 12 months", "value": "1 (0.5%) n (%)"},
      {"measurement": "Serious ocular TEAE Papilledema, events M", "setting": "PM (monthly), 12 months", "value": 3},
      {"measurement": "Serious ocular TEAE Papilledema, patients", "setting": "PM (monthly), 12 months", "value": "1 (0.5%) n (%)"},
      {"measurement": "Serious ocular TEAE Retinal detachment, patients", "setting": "PM (monthly), 12 months", "value": "0 n (%)"},
      {"measurement": "Serious ocular TEAE Vitritis, patients", "setting": "PM (monthly), 12 months", "value": "0 n (%)"},
      {"measurement": "Serious ocular TEAEs in the study eye, events M", "setting": "PM (monthly), 12 months", "value": 3},
      {"measurement": "Serious ocular TEAEs in the study eye, patients", "setting": "PM (monthly), 12 months", "value": "3 (1.4%) n (%)"},
      {"measurement": "Sum of investigator-determined eAMD and reading center cases not reported by investigators", "setting": "PM (monthly), 12 months", "value": "(6.1%)"},
      {"measurement": "Sum of investigator-determined eAMD and reading center cases not reported by investigators", "setting": "PM (monthly), 12 months, count", "value": 13},
      {"measurement": "All TEAEs, Total events, M", "setting": "PM (monthly), 18 months", "value": 1037},
      {"measurement": "All TEAEs, patients", "setting": "PM (monthly), 18 months", "value": "185 (86.9%) n (%)"},
      {"measurement": "Non-ocular TEAEs, M", "setting": "PM (monthly), 18 months", "value": 573},
      {"measurement": "Non-ocular TEAEs, Patients", "setting": "PM (monthly), 18 months", "value": "152 (71.4%) n (%)"},
      {"measurement": "Ocular TEAEs in study eye, M", "setting": "PM (monthly), 18 months", "value": 325},
      {"measurement": "Ocular TEAEs in study eye, Patients", "setting": "PM (monthly), 18 months", "value": "126 (59.2%) n (%)"},
      {"measurement": "Discontinued study prior to Month 12, reason Adverse Event", "setting": "PM (monthly), N=213", "value": "3 (1.4%) n (%)"},
      {"measurement": "Discontinued study prior to Month 12, reason Death", "setting": "PM (monthly), N=213", "value": "7 (3.3%) n (%)"},
      {"measurement": "Discontinued study prior to Month 18, reason Adverse event", "setting": "PM (monthly), N=213", "value": "6 (2.8%) n (%)"},
      {"measurement": "Discontinued study prior to Month 18, reason Death", "setting": "PM (monthly), N=213", "value": "12 (5.6%) n (%)"},
      {"measurement": "Patients with new onset fellow eye eAMD", "setting": "PM (monthly), 168 patients without baseline fellow eye CNV", "value": "8 (4.8%) n (%)"},
      {"measurement": "patients with study eye investigator-determined new-onset exudative AMD", "setting": "every other month, month 18, 15/212 patients", "value": 7.1, "unit": "%"},
      {"measurement": "patients with study eye investigator-determined new-onset exudative AMD", "setting": "monthly, month 18, 16/213 patients", "value": 7.5, "unit": "%"}
    ]}
  ]
}
